As a reminder, the koff is the first-order rate constant of dissociation. The kon is the rate constant with which the complex forms. A higher kon goes with faster complex formation.

Experiment [1] has as its target T1, Human FcRn (biotinylated human FcRn) (human, UniProt P61769 21-119).
T1 construct: Biotinylated human FcRn captured on a Series S Sensor Chip SA; also called human neonatal Fc receptor; hFcRn
Kind of experiment: SPR Biacore 8K+, biotinylated hFcRn on SA chip (~700 RU), pH 6.0, bivalent analyte fit (kd1). (SPR reads the build-up and loss of mass on a sensor chip optically.)

Experiment [2] has as its target T2, Mouse serum albumin (MSA; Albumin Bioscience Cat No. 2601) (mouse, UniProt P07724 25-608). The experiment in a line: SPR Biacore 8K+, MSA on C1 chip, pH 7.4, 1:1 fit (off-rate only).
Experiment [3] concerns the target T3, Human serum albumin (HSA; Sigma-Aldrich Cat No. A8763) (human, UniProt P02768 25-609). Kind of experiment: SPR Biacore 8K+, HSA on C1 chip, pH 7.4, 1:1 fit.
In experiment [4] the target is T1, Human FcRn (biotinylated human FcRn). The experiment in a line: SPR Biacore 8K+, biotinylated hFcRn on SA chip (~700 RU), pH 6.0, bivalent analyte fit (KD1).
For experiment [5] the target is unchanged. Kind of experiment: SPR Biacore 8K+, biotinylated hFcRn on SA chip (~700 RU), pH 6.0, bivalent analyte fit (ka1).
The target is the same in experiment [6]. Kind of experiment: SPR Biacore 8K+, biotinylated hFcRn on SA chip (~700 RU), pH 6.0, bivalent analyte fit.
The target in experiment [7] is T3, Human serum albumin (HSA; Sigma-Aldrich …). Kind of experiment: SPR Biacore 8K+, HSA on CM5 chip, pH 7.4, 1:1 fit.
The target of experiment [8] is T1, Human FcRn (biotinylated human FcRn). Kind of experiment: SPR Biacore 8K+, biotinylated hFcRn on SA chip (~600 RU), pH 6.0, bivalent analyte fit (ka1).
Experiment [9] concerns the target T2, Mouse serum albumin (MSA; Albumin …). Kind of experiment: SPR Biacore 8K+, MSA on CM5 chip, pH 7.4, 1:1 fit.
The target in experiment [10] is T1, Human FcRn (biotinylated human FcRn). Kind of experiment: SPR Biacore 8K+, biotinylated hFcRn on SA chip (~600 RU), pH 6.0, bivalent analyte fit (kd1).
For experiment [11] the target is unchanged. The experiment in a line: SPR Biacore 8K+, biotinylated hFcRn on SA chip (~1000-2000 RU), pH 6.0, no HSA, bivalent analyte fit (KD1).
For experiment [12] the target is unchanged. The experiment in a line: SPR Biacore 8K+, biotinylated hFcRn on SA chip (~1000-2000 RU), pH 6.0, no HSA, 1:1 fit.
For experiment [13] the target is unchanged. The experiment in a line: SPR Biacore 8K+, biotinylated hFcRn on SA chip (~1000-2000 RU), pH 6.0, no HSA, bivalent analyte fit (kd1).
Experiment [14] has the same target. The experiment in a line: SPR Biacore 8K+, biotinylated hFcRn on SA chip (~600 RU), pH 6.0, bivalent analyte fit (KD1).
Experiment [15] concerns the target T2, Mouse serum albumin (MSA; Albumin …). Kind of experiment: SPR Biacore 8K+, MSA on CM5 chip, pH 6.0, 1:1 fit.
In experiment [16] the target is T3, Human serum albumin (HSA; Sigma-Aldrich …). Kind of experiment: SPR Biacore 8K+, HSA on CM5 chip, pH 6.0, 1:1 fit.
Experiment [17] has as its target T1, Human FcRn (biotinylated human FcRn). Kind of experiment: SPR Biacore 8K+, biotinylated hFcRn on SA chip (~1000-2000 RU), pH 6.0, with 30 uM HSA, bivalent analyte fit (kd1); remark: no good fit possible.
Experiment [18] shares this target. The experiment in a line: SPR Biacore 8K+, biotinylated hFcRn on SA chip (~1000-2000 RU), pH 6.0, no HSA, bivalent analyte fit.
The target is the same in experiment [19]. Kind of experiment: SPR Biacore 8K+, biotinylated hFcRn on SA chip (~600 RU), pH 6.0, bivalent analyte fit.
Experiment [20] shares this target. The experiment in a line: SPR Biacore 8K+, biotinylated hFcRn on SA chip (~1000-2000 RU), pH 6.0, no HSA, bivalent analyte fit (ka1).
Experiment [21] has the same target. Kind of experiment: SPR Biacore 8K+, biotinylated hFcRn on SA chip (~1000-2000 RU), pH 6.0, with 30 uM HSA, bivalent analyte fit (KD1).
The target is the same in experiment [22]. The experiment in a line: SPR Biacore 8K+, biotinylated hFcRn on SA chip (~1000-2000 RU), pH 6.0, with 30 uM HSA, bivalent analyte fit (ka1).
Experiment [23] shares this target. Kind of experiment: SPR Biacore 8K+, biotinylated hFcRn on SA chip (~1000-2000 RU), pH 6.0, with 30 uM HSA, bivalent analyte fit (kd1).
For experiment [24] the target is unchanged. The experiment in a line: SPR Biacore 8K+, biotinylated hFcRn on SA chip (~1000-2000 RU), pH 6.0, with 30 uM HSA, bivalent analyte fit.

B1: T-0263-00_TP121 (antibody, human IgG1, kappa)
heavy 1: not shown
heavy 2: EVQLVESGGGLVQPGGSLRLSCAASGFNIRDTYIHWVRQAPGKGLEWVARIYPTQGYTRYADSVKGRFTISADTSKNTAYLQMNSLRAEDTAVYYCSRWGGEGFYAMDYWGQGTLVTVSSASTKGPSVFPLAPSSKSTSGGTAALGCLVKDYFPEPVTVSWNSGALTSGVHTFPAVLQSSGLYSLSSVVTVPSSSLGTQTYICNVNHKPSNTKVDKKVEPKSCDKTHTCPPCPAPELLGGPSVFLFPPKPKDTLMISRTPEVTCVVVDVSHEDPEVKFNWYVDGVEVHNAKTKPREEQYNSTYRVVSVLTVLHQDWLNGKEYKCKVSNKALPAPIEKTISKAKGQPREPQVCTLPPSRDELTKNQVSLSCAVKGFYPSDIAVEWESNGQPENNYKTTPPVLDSDGSFFLVSKLTVDKSRWQQGNVFSCSVMHEALHNRFTQKSLSLSPG
light: not shown
notes: Full-length IgG1 knob-in-hole with one C-terminal ALB23002-A (9GS) on chain 1
Take B1: the off-rate (koff) in [1] was determined as 0.16 s⁻¹; in [2] it was 0.0385 s⁻¹; in experiment [3] it was 0.00204 s⁻¹. In addition, the Kd in experiment [3] was 76.4 nM; in [4], 2300 nM. Also, the kon in experiment [3] came to 26700 M⁻¹ s⁻¹; in [5], 71000 M⁻¹ s⁻¹. Besides, the ka2 in experiment [6] was 1.8e-05 1/RUs. The molecule further had a kd2 in experiment [6] of 0.00036 s⁻¹.

B2: TP006 (Fc fusion)
chain 1: DVQLVESGGGLVQPGGSLRLSCAASGLTFSTNPMYWYRQAPGKQRELVASISSRGITNYADSVKGRFTISRDNSKNTVYLQMNSLRPEDTAVYYCRLASLSSGTVYWGQGTLVTVSSDKTHTCPPCPAPEAAGGPSVFLFPPKPKDTLMISRTPEVTCVVVDVSQEDPEVQFNWYVDGVEVHNAKTKPREEQFNSTYRVVSVLTVLHQDWLNGKEYKCKVSNKGLPSSIEKTISKAKGQPREPQVYTLPPCQEEMTKNQVSLWCLVKGFYPSDIAVEWESNGQPENNYKTTPPVLDSDGSFFLYSKLTVDKSRWQEGNVFSCSVMHEALHNHYTQKSLSLSLGGGGGSGGGGSGGGGSGGGGSGGGGSGGGGSGGGGSEVQLVESGGGVVQPGGSLRLSCAASGFTFRSFGMSWVRQAPGKGPEWVSSISGSGSDTLYADSVKGRFTISRDNSKNTLYLQMNSLRPEDTALYYCTIGGSLSRSSQGTLVTVSS
chain 2: DKTHTCPPCPAPEAAGGPSVFLFPPKPKDTLMISRTPEVTCVVVDVSQEDPEVQFNWYVDGVEVHNAKTKPREEQFNSTYRVVSVLTVLHQDWLNGKEYKCKVSNKGLPSSIEKTISKAKGQPREPQVCTLPPSQEEMTKNQVSLSCAVKGFYPSDIAVEWESNGQPENNYKTTPPVLDSDGSFFLVSKLTVDKSRWQEGNVFSCSVMHEALHNHYTQKSLSLSLG
notes: IgG4 FALA Fc (knob-in-hole); irrelevant ISVD N-terminal and ALB23002 C-terminal (35GS) on chain 1; chain 2 is hinge-Fc only
With B2, the Kd in experiment [7] came to 67 nM; in experiment [9], 120 nM; in experiment [11] it was 290 nM; in experiment [12], 18 nM; in [14], 426 nM; in [15], 84 nM. In [16], this molecule showed a Kd of 32 nM. Moreover, the dissociation rate constant (koff) turned out to be 0.0017 s⁻¹ in [7]; 0.0028 s⁻¹ in experiment [9]; 0.00402 s⁻¹ in [10]; 0.083 s⁻¹ in [12]; 0.042 s⁻¹ in experiment [13]; 0.0026 s⁻¹ in [15]. For the same molecule, the koff in experiment [16] was 0.0017 s⁻¹; in experiment [17], 0.0016 s⁻¹. Further, the kon stood at 26000 M⁻¹ s⁻¹ in experiment [7]; 9440 M⁻¹ s⁻¹ in experiment [8]; 23000 M⁻¹ s⁻¹ in [9]; 4.5e+06 M⁻¹ s⁻¹ in experiment [12]; 31000 M⁻¹ s⁻¹ in [15]; 54000 M⁻¹ s⁻¹ in experiment [16]. This molecule registered a kon in [20] of 140000 M⁻¹ s⁻¹. The figures for the ka2 in experiment [18] and in experiment [19] were 0.00013 1/RUs and 10.7 1/RUs, respectively. Besides, the kd2 in experiment [18] is 0.002 s⁻¹; in experiment [19], 71.9 s⁻¹.

B3: TP009 (Fc fusion)
chain 1: DVQLVESGGGLVQPGGSLRLSCAASGLTFSTNPMYWYRQAPGKQRELVASISSRGITNYADSVKGRFTISRDNSKNTVYLQMNSLRPEDTAVYYCRLASLSSGTVYWGQGTLVTVSSDKTHTCPPCPAPEAAGGPSVFLFPPKPKDTLMISRTPEVTCVVVDVSQEDPEVQFNWYVDGVEVHNAKTKPREEQFNSTYRVVSVLTVLHQDWLNGKEYKCKVSNKGLPSSIEKTISKAKGQPREPQVYTLPPCQEEMTKNQVSLWCLVKGFYPSDIAVEWESNGQPENNYKTTPPVLDSDGSFFLYSKLTVDKSRWQEGNVFSCSVMHEALHNHYTQKSLSLSLG
chain 2: DVQLVESGGGVVQPGGSLRLSCAASGFTFRSFGMSWVRQAPGKGPEWVSSISGSGSDTLYADSVKGRFTISRDNSKNTLYLQMNSLRPEDTALYYCTIGGSLSRSSQGTLVTVSSDKTHTCPPCPAPEAAGGPSVFLFPPKPKDTLMISRTPEVTCVVVDVSQEDPEVQFNWYVDGVEVHNAKTKPREEQFNSTYRVVSVLTVLHQDWLNGKEYKCKVSNKGLPSSIEKTISKAKGQPREPQVCTLPPSQEEMTKNQVSLSCAVKGFYPSDIAVEWESNGQPENNYKTTPPVLDSDGSFFLVSKLTVDKSRWQEGNVFSCSVMHEALHNHYTQKSLSLSLG
notes: IgG4 FALA Fc (knob-in-hole); irrelevant ISVD N-terminal on chain 1, ALB23002 N-terminal on chain 2
With B3, the Kd in experiment [7] is 6.7 nM; in experiment [21], 23 nM; in experiment [9], 21 nM; in experiment [11], 150 nM; in [12] it was 3 nM; in [14] it was 15.1 nM. Also, the Kd in experiment [15] stood at 13 nM; in experiment [16], 2.7 nM. Further, the koff in experiment [7] turned out to be 0.0005 s⁻¹; in experiment [9] it was 0.0026 s⁻¹; in experiment [10], 0.000344 s⁻¹; in [23], 0.0017 s⁻¹; in [12] it was 0.0067 s⁻¹; in experiment [13], 0.037 s⁻¹. Besides, the dissociation rate constant (koff) was determined as 0.002 s⁻¹ in [15] and 0.00037 s⁻¹ in [16]. For the same molecule, the kon is 75000 M⁻¹ s⁻¹ in experiment [7]; 22800 M⁻¹ s⁻¹ in experiment [8]; 130000 M⁻¹ s⁻¹ in [9]; 75000 M⁻¹ s⁻¹ in experiment [22]; 2.3e+06 M⁻¹ s⁻¹ in experiment [12]; 160000 M⁻¹ s⁻¹ in experiment [15]. Besides, the kon in [16] came to 140000 M⁻¹ s⁻¹; in [20], 240000 M⁻¹ s⁻¹. Moreover, the ka2 in [18] is 0.0013 1/RUs; in [19] it was 0.917 1/RUs; in experiment [24], 0.0074 1/RUs. Besides, the kd2 in experiment [18] turned out to be 0.018 s⁻¹; in experiment [19] it was 10.2 s⁻¹; in [24] it was 0.095 s⁻¹.

For the origin of these results see US20240368250A1 (Ablynx, published 2024).
